Patent US20230093265A1 (PROSMEDIC SWEDEN, published 2023)

Molecular target: T1, purified prostasomes (from human seminal plasma) (human)
T1 construct: Not a single protein: exosome-type vesicle purified from seminal plasma
Assay: direct ELISA, coated purified prostasomes, biotinylated scFv at 4 µg/mL, streptavidin-HRP
Protocol: The wells were washed three times with PBS containing 0.05% Tween 20. Addition of biotinylated human synthetic scFv fragments 1:250 in row A were made and then 1:5 dilutions downwards. The plates were then incubated for 2 h at room temperature and then washed three times with PBS containing 0.05% Tween 20. 100 μL Streptavidine-HRP was added to the wells and incubated for 2 h at room temperature. The wells were washed three times with PBS containing 0.05% Tween 20. 100 μL TMB (tetramethylbenzidine) substrate was added to the wells, and incubated for 20 min and 25 μL 1 M H2SO4 was added to the plate. The plate was read at 450 nm.
Seminal plasma was collected from the Reproduction Centre at Akademiska Hospital (Uppsala, Sweden) following previously described routines (Ronquist, G. K., et al., Prostasomal DNA characterization and transfer into human sperm. Mol Reprod Dev, 2011. 78 (7): p. 467-76). The seminal plasma was thawed and centrifuged at 3,000 g for 12 min. The supernatants were collected and centrifuged at 10,000 g for 30 min. The supernatants were then transferred to new tubes and ultra-centrifuged using a 90Ti rotor (Beckman Coulter, Brea, Calif., USA) at 100,000 g for 2 h. The pellets were resuspended in 0.02 M NaH2PO4, 0.15 M NaCl, pH 7.2 (PBS), overnight at 4° C. The resuspended pellets were then loaded on a chromatography column (XK 60/70, GE Healthcare, Uppsala, Sweden) packed with Superdex 200 gel. Fractions were collected at a flow rate of 5 mL/h. The fractions were then measured with a spectrophotometer where peaks at both 260 nm (nucleic acid) and 280 nm (proteins) corresponds to prostasomes. These fractions were collected and pooled and ultra-centrifuged at 100,000 g. The obtained pellet was resuspended in PBS. The purified prostasomes (1 mg/ml were diluted 1:250 in PBS and 100 μL were added per well in a F96 Polysorb NUNC Immunoplate (Thermo Fisher Scientific, Uppsala, Sweden). The plates were incubated for 2 h at ambient temperature and then washed three times with PBS containing 0.05% Tween 20 (P1379, Sigma-Aldrich). 120 μL 1% bovine serum albumin (BSA, Sigma-Aldrich) in PBS were added to the wells and the plate was incubated over night at ambient temperature. The plate was washed three times with PBS containing 0.05% Tween 20. 100 μL of the biotinylated monoclonal antibodies were added in dilution of 4 μg/mL in PBS to the wells.

Row | Binder | Absorbance
1 | human synthetic scFv fragment 3 (scFv, also called scFv 3) scFv: EVQLLESGGGLVQPGGSLRLSCAASGFTFSSYAMSWVRQAPGKGLEWVSAISGSGGSTYYASVKGRFTISRDNSKNTLYLQMNSLRAEDTAVYYCARVYYHYYYYGSFDYWGQGTLVTVSSGGGGSGGGGSGGGGSDIQMTQSPSSLSASVGDRVTITCRASQSISSYLNWYQQKPGKAPKLLIYAASSLQSGVPSRFSGSGSGTDFTLTISSLQPEDFATYYCQQSTHLSTFGQGTKLEIKR | 0.903 absorbance at 450 nm
2 | human synthetic scFv fragment 5 (scFv, also called scFv 5) scFv: EVQLLESGGGLVQPGGSLRLSCAASGFTFSSYAMSWVRQAPGKGLEWVSAISGSGGSTYYASVKGRFTISRDNSKNTLYLQMNSLRAEDTAVYYCARSYSWYSRGPSLDYWGQGTLVTVSSGGGGSGGGGSGGGGSDIQMTQSPSSLSASVGDRVTITCRASQSISSYLNWYQQKPGKAPKLLIYAASSLQSGVPSRFSGSGSGTDFTLTISSLQPEDFATYYCQQAFYAHLLTFGQGTKLEIKR | 0.617 absorbance at 450 nm
3 | human synthetic scFv fragment 7 (scFv, also called scFv 7; AK7) scFv: EVQLLESGGGLVQPGGSLRLSCAASGFTFSSYAMSWVRQAPGKGLEWVSAISGSGGSTYYASVKGRFTISRDNSKNTLYLQMNSLRAEDTAVYYCARYTHSTYGYRLDYWGQGTLVTVSSGGGGSGGGGSGGGGSDIQMTQSPSSLSASVGDRVTITCRASQSISSYLNWYQQKPGKAPKLLIYAASSLQSGVPSRFSGSGSGTDFTLTISSLQPEDFATYYCQQDAYHPPTFGQGTKLEIKR | 1.36 absorbance at 450 nm
4 | human synthetic scFv fragment 1 (scFv, also called scFv 1) scFv: EVQLLESGGGLVQPGGSLRLSCAASGFTFSSYAMSWVRQAPGKGLEWVSAISGSGGSTYYASVKGRFTISRDNSKNTLYLQMNSLRAEDTAVYYCARHYYNWASGYFDYWGQGTLVTVSSGGGGSGGGGSGGGGSDIQMTQSPSSLSASVGDRVTITCRASQSISSYLNWYQQKPGKAPKLLIYAASSLQSGVPSRFSGSGSGTDFTLTISSLQPEDFATYYCQQGWYPPTFGQGTKLEIKR | 0.643 absorbance at 450 nm
5 | human synthetic scFv fragment 6 (scFv, also called scFv 6) scFv: EVQLLESGGGLVQPGGSLRLSCAASGFTFSSYAMSWVRQAPGKGLEWVSAISGSGGSTYYASVKGRFTISRDNSKNTLYLQMNSLRAEDTAVYYCARYVRGYGYGYLDYWGQGTLVTVSSGGGGSGGGGSGGGGSDIQMTQSPSSLSASVGDRVTITCRASQSISSYLNWYQQKPGKAPKLLIYAASSLQSGVPSRFSGSGSGTDFTLTISSLQPEDFATYYCQQAPAYSPFTFGQGTKLEIKR | 0.556 absorbance at 450 nm
6 | human synthetic scFv fragment 2 (scFv, also called scFv 2) scFv: EVQLLESGGGLVQPGGSLRLSCAASGFTFSSYAMSWVRQAPGKGLEWVSAISGSGGSTYYASVKGRFTISRDNSKNTLYLQMNSLRAEDTAVYYCARTTSYYGYSAHFIDYWGQGTLVTVSSGGGGSGGGGSGGGGSDIQMTQSPSSLSASVGDRVTITCRASQSISSYLNWYQQKPGKAPKLLIYAASSLQSGVPSRFSGSGSGTDFTLTISSLQPEDFATYYCQQGYGPFTFGQGTKLEIKR | 0.394 absorbance at 450 nm

Other lines, results leading:

Row | Absorbance | Binder
7 | 1.64 absorbance at 450 nm | human synthetic scFv fragment 10 (scFv, also called scFv 10) scFv: EVQLLESGGGLVQPGGSLRLSCAASGFTFSSYAMSWVRQAPGKGLEWVSAISGSGGSTYYASVKGRFTISRDNSKNTLYLQMNSLRAEDTAVYYCARYSYYYTWLDYWGQGTLVTVSSGGGGSGGGGSGGGGSDIQMTQSPSSLSASVGDRVTITCRASQSISSYLNWYQQKPGKAPKLLIYAASSLQSGVPSRFSGSGSGTDFTLTISSLQPEDFATYYCQQFYPSLHTFGQGTKLEIKR
8 | 0.653 absorbance at 450 nm | human synthetic scFv fragment 8 (scFv, also called scFv 8) scFv: EVQLLESGGGLVQPGGSLRLSCAASGFTFSSYAMSWVRQAPGKGLEWVSAISGSGGSTYYASVKGRFTISRDNSKNTLYLQMNSLRAEDTAVYYCARVFYYGPYYFSYHFDYWGQGTLVTVSSGGGGSGGGGSGGGGSDIQMTQSPSSLSASVGDRVTITCRASQSISSYLNWYQQKPGKAPKLLIYAASSLQSGVPSRFSGSGSGTDFTLTISSLQPEDFATYYCQQDDRGLPTFGQGTKLEIKR
9 | 0.066 absorbance at 450 nm | human synthetic scFv fragment 11 (scFv, also called scFv 11) scFv: EVQLLESGGGLVQPGGSLRLSCAASGFTFSSYAMSWVRQAPGKGLEWVSAISGSGGSTYYASVKGRFTISRDNSKNTLYLQMNSLRAEDTAVYYCARYTYYVGGFDYWGQGTLVTVSSGGGGSGGGGSGGGGSDIQMTQSPSSLSASVGDRVTITCRASQSISSYLNWYQQKPGKAPKLLIYAASSLQSGVPSRFSGSGSGTDFTLTISSLQPEDFATYYCQQGFVLSTFGQGTKLEIKR
10 | 0.954 absorbance at 450 nm | human synthetic scFv fragment 12 (scFv, also called scFv 12) scFv: EVQLLESGGGLVQPGGSLRLSCAASGFTFSSYAMSWVRQAPGKGLEWVSAISGSGGSTYYASVKGRFTISRDNSKNTLYLQMNSLRAEDTAVYYCARTYYYFYPYGYYFDYWGQGTLVTVSSGGGGSGGGGSGGGGSDIQMTQSPSSLSASVGDRVTITCRASQSISSYLNWYQQKPGKAPKLLIYAASSLQSGVPSRFSGSGSGTDFTLTISSLQPEDFATYYCQQGFYLPTFGQGTKLEIKR
11 | 1.29 absorbance at 450 nm | human synthetic scFv fragment 9 (scFv, also called scFv 9) scFv: EVQLLESGGGLVQPGGSLRLSCAASGFTFSSYAMSWVRQAPGKGLEWVSAISGSGGSTYYASVKGRFTISRDNSKNTLYLQMNSLRAEDTAVYYCARSHYGSLDYWGQGTLVTVSSGGGGSGGGGSGGGGSDIQMTQSPSSLSASVGDRVTITCRASQSISSYLNWYQQKPGKAPKLLIYAASSLQSGVPSRFSGSGSGTDFTLTISSLQPEDFATYYCQQFSYTLSTFGQGTKLEIKR
